Results reported in paper doi:10.1101/2023.08.08.549832.

Legend:
Assay in all cases: FRET or BRET
[1] = target: PTCH1-eGFP (enhanced green fluorescent protein-tagged human PTCH1) (human) (UniProt Q13635)
[2] = target: PTCH2-eGFP (not stated (printed entry Q9Y6C5 is human PTCH2)) (UniProt Q9Y6C5)
[3] = target: PTCH1-eGFP (enhanced green fluorescent protein-tagged human PTCH1) (human) (UniProt Q13635); remark: listed apart in the source

| net increase in GFP signal after mCherry photobleaching [1] | magnitude of GFP signal change against PTCH1 homodimers [2] | magnitude of GFP signal change against PTCH1 homodimers [3] | Molecule |
| --- | --- | --- | --- |
| > 10% | 50 % lower |  | PTCH1-mCherry (from UniProt Q13635 1-1447) (receptor) |
|  |  | 50 % lower | PTCH2-mCherry (receptor) MTRSPPLRELPPSYTPPARTAAPQILAGSLKAPLWLRAYFQGLLFSLGCGIQRHCGKVLFLGLLAFGALALGLRMAIIETNLEQLWVEVGSRVSQELHYTKEKLGEEAAYTSQMLIQTARQEGENILTPEALGLHLQAALTASKVQVSLYGKSWDLNKICYKSGVPLIENGMIERMIEKLFPCVILTPLDCFWEGAKLQGGSAYLPGRPDIQWTNLDPEQLLEELGPFASLEGFRELLDKAQVGQAYVGRPCLHPDDLHCPPSAPNHHSRQAPNVAHELSGGCHGFSHKFMHWQEELLLGGMARDPQGELLRAEALQSTFLLMSPRQLYEHFRGDYQTHDIGWSEEQASTVLQAWQRRFVQLAQEALPENASQQIHAFSSTTLDDILHAFSEVSAARVVGGYLLMLAYACVTMLRWDCAQSQGSVGLAGVLLVALAVASGLGLCALLGITFNAATTQVLPFLALGIGVDDVFLLAHAFTEALPGTPLQERMGECLQRTGTSVVLTSINNMAAFLMAALVPIPALRAFSLQAAIVVGCTFVAVMLVFPAILSLDLRRRHCQRLDVLCCFSSPCSAQVIQILPQELGDGTVPVGIAHLTATVQAFTHCEASSQHVVTILPPQAHLVPPPSDPLGSELFSPGGSTRDLLGQEEETRQKAACKSLPCARWNLAHFARYQFAPLLLQSHAKAIVLVLFGALLGLSLYGATLVQDGLALTDVVPRGTKEHAFLSAQLRYFSLYEVALVTQGGFDYAHSQRALFDLHQRFSSLKAVLPPPATQAPRTWLHYYRNWLQGIQAAFDQDWASGRITRHSYRNGSEDGALAYKLLIQTGDAQEPLDFSQLTTRKLVDREGLIPPELFYMGLTVWVSSDPLGLAASQANFYPPPPEWLHDKYDTTGENLRIPPAQPLEFAQFPFLLRGLQKTADFVEAIEGARAACAEAGQAGVHAYPSGSPFLFWEQYLGLRRCFLLAVCILLVCTFLVCALLLLNPWTAGLIVLVLAMMTVELFGIMGFLGIKLSAIPVVILVASVGIGVEFTVHVALGFLTTQGSRNLRAAHALEHTFAPVTDGAISTLLGLLMLAGSHFDFIVRYFFAALTVLTLLGLLHGLVLLPVLLSILGPPPEVIQMYKESPEILSPPAPQGGGLRWGASSSLPQSFARVTTSMTVAIHPPPLPGAYIHPAPDEPPWSPAATSSGNLSSRGPGPATG |
